Source: patent US20100203046A1 (Biogen, published 2010)
Where two headings read alike, the source gives them in different places.

Experiments:
[1] = target: T1, human FcγRIII (CD16), CD16a (F158), on CD16-transfected Jurkat cells (human, UniProt P08637 17-254); assay: CD16 bridging assay, purified
T1 construct: whole, on cells

[2] = target: T2, human FcγRI (CD64) on IFNγ-activated U937 cells (human, UniProt P12314 16-374); assay: CD64 bridging assay, purified
T2 construct: whole, on cells; also called FcγR1

[3] = target: T3, human C1q (Sigma C0660) (human, UniProt P02745 23-245; P02746 28-253; P02747 29-245); assay: C1q ELISA on CD2, purified
T3 construct: Bought protein; also called complement protein C1q
Method: (§1) The C1q binding assay was performed by coating 96 well Maxisorb ELISA plates (Nalge-Nunc Rochester, N.Y., USA) with 50 μl recombinant soluble human CD2 at 10 μg/ml overnight at 4° C. in PBS. The wells were aspirated and washed three times with wash buffer (PBS, 0.05% Tween 20) and blocked for >1 h with 200 μ/well of block/diluent buffer (0.1 M Na₂HPO₄, pH 7, 0.1 M NaCl, 0.05% Tween 20, 0.1% gelatin). The antibody to be tested was diluted in block/diluent buffer starting at 15 μg/ml with 3-fold dilutions. 50 μl were added per well, and the plates incubated for 2 h at room temperature. After aspirating and washing as above, 50 μl/well of 2 μg/ml of Sigma human C1q (C0660) diluted in block/diluent buffer was added and incubated for 1.5 h at room temperature. After aspirating and washing as above, 50 μl/well of chicken anti human C1q (Cedarlane laboratories CL2101AP), diluted 2,000-fold in block/diluent buffer, was added. After incubation for 1.5 h at room temperature, the wells were aspirated and washed as above. 50 μl/well of donkey F(ab′)₂ anti chicken IgY HRP conjugate (Jackson ImmunoResearch 703-036-155) diluted to 1:5,000 in block/diluent was then added, and the wells incubated for 1 h at room temperature. After aspirating and washing as above, 100 μl TMB substrate (420 μM TMB, 0.004% H₂O₂ in 0.1 M sodium acetate/citric acid buffer, pH 4.9) was added and incubated for 2 min before the reaction was stopped with 100 μl 2 N sulfuric acid. The absorbance was read at 450 nm with a Softmax P instrument, and Softmax software was used to determine the relative binding affinity (C value) with a 4-parameter fit.

[4] = target: T3, human C1q (Sigma C0660); assay: C1q ELISA on CD2, transient
Method: as §1

[5] = target: T1, human FcγRIII (CD16), CD16a (F158), on …; assay: CD16 bridging assay, transient
[6] = target: T1, human FcγRIII (CD16), CD16a (F158), on …; assay: CD16 bridging assay, transient; remark: listed apart in the source
[7] = target: T1, human FcγRIII (CD16), CD16a (F158), on …; assay: CD16 bridging assay, transient; remark: listed apart in the source
[8] = target: T1, human FcγRIII (CD16), CD16a (F158), on …; assay: CD16 bridging assay, transient; remark: listed apart in the source

T1 sequence (P08637 17-254): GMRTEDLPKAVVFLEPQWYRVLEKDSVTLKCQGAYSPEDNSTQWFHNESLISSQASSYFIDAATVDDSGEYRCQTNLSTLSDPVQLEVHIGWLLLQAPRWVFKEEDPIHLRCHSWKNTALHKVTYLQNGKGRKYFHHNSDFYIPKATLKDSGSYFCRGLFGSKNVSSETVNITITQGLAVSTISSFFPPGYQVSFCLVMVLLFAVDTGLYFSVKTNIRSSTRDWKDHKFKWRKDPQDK
T3 sequence (P02745 23-245 limits assumed, chain 1 of 3): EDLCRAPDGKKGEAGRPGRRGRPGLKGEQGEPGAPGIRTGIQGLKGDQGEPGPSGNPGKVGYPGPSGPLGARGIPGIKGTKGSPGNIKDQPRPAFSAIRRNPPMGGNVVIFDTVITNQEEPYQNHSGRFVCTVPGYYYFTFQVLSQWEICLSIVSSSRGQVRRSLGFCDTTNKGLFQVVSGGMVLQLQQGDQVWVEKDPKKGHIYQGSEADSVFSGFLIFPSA
T3 sequence (P02746 28-253 limits assumed, chain 2 of 3): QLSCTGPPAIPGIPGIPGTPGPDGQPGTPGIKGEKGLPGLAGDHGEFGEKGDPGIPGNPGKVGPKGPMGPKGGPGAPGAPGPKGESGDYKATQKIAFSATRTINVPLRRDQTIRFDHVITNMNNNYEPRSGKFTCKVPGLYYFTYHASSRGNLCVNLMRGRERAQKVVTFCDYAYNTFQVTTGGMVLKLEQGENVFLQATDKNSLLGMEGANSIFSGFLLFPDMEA
T3 sequence (P02747 29-245 limits assumed, chain 3 of 3): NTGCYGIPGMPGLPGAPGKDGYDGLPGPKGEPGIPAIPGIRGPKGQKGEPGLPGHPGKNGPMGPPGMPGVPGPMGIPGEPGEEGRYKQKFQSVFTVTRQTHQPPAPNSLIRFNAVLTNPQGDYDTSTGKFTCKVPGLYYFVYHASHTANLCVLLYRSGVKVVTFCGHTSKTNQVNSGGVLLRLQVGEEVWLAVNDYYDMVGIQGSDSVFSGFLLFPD
T2 sequence (P12314 16-374): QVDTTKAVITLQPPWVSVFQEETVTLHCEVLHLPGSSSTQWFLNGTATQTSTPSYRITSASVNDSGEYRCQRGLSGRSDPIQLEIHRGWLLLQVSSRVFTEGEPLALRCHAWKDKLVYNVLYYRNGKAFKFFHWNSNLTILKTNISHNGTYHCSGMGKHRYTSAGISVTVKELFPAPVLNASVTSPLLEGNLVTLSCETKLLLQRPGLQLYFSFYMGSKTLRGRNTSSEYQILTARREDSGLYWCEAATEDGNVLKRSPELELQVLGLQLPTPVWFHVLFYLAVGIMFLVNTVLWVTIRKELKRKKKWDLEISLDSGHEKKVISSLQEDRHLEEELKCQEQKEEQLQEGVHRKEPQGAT

B1: chCB6-huIgG1 I332H (antibody, name in EU numbering)
heavy: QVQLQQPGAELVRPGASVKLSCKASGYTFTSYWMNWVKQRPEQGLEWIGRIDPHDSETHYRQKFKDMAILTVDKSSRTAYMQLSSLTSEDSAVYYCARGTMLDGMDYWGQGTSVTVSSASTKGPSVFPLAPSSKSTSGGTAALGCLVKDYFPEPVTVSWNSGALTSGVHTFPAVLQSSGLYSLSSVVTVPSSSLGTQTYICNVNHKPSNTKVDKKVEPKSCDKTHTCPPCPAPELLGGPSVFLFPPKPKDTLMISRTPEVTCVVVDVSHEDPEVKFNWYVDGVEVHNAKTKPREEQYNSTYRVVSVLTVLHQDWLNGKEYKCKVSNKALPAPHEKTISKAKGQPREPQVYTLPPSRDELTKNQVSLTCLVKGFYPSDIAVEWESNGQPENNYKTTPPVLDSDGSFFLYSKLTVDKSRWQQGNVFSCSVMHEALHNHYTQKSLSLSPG
light: QIVLTQSPAIMSASPGEKVTMTCRASSSVSHMHWYQQKSGTSPKRWIYDTSKLASGVPARFSGSGSGTSYSLTISSVEAEDAATYYCQQWSSNPLTFGAGTKLELKRTVAAPSVFIFPPSDEQLKSGTASVVCLLNNFYPREAKVQWKVDNALQSGNSQESVTEQDSKDSTYSLSSTLTLSKADYEKHKVYACEVTHQGLSSPVTKSFNRGEC
notes: copies: 2 + 2
In the case of B1, the “fold decrease in binding vs WT” value [1] is reported as 2 fold, the binding result [2] is reported as “binds” and the binding result [3] is reported as “binds”.

B2: chCB6-huIgG1 R301K (antibody, name in EU numbering)
heavy: not shown
light: B1 light
notes: copies: 2 + 2
In the case of B2, the binding result [4] is reported as “binds” and the “fold decrease in binding vs WT” value [5] is reported as 5 fold.

B3: chCB6-huIgG1 R301S (antibody, name in EU numbering)
heavy: not shown
light: B1 light
notes: copies: 2 + 2
B3: binds [4]; binds [5].

B4: chCB6-huIgG1 I332Q (antibody, name in EU numbering)
heavy: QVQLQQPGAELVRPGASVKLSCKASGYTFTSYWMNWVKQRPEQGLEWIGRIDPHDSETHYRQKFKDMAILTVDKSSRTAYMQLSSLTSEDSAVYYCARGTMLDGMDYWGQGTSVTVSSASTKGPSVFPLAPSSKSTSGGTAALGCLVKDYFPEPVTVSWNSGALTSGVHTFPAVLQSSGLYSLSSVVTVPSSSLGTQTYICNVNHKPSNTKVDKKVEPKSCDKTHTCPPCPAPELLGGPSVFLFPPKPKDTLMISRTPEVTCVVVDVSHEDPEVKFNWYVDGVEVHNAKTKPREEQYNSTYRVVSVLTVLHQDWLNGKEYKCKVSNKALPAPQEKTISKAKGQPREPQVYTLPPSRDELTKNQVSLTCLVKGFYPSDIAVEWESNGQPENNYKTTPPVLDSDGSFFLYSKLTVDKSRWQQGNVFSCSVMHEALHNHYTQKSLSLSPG
light: B1 light
notes: copies: 2 + 2
With B4 the “fold increase in binding vs WT” value [6] was 2 fold, the “fold increase in binding vs WT” value [1] was 2 fold and the binding result [2] was “binds”. B4: binds [3].

B5: chCB6-huIgG1 A378H (antibody, name in EU numbering)
heavy: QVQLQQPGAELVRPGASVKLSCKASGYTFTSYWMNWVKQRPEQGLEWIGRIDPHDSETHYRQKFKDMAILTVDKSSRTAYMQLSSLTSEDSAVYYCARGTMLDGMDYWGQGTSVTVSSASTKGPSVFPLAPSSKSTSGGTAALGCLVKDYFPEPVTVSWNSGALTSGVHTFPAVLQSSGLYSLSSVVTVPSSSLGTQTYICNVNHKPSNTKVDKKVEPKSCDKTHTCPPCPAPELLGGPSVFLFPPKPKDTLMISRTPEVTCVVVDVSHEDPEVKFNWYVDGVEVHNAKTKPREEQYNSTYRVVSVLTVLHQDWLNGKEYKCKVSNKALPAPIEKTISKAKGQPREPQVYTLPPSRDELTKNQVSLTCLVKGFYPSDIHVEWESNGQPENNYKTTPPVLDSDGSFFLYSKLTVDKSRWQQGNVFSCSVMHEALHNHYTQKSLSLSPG
light: B1 light
notes: copies: 2 + 2
B5 was tested, and the binding result [4] was “binds” and the “fold decrease in binding vs WT” value [7] was 6 fold.

B6: chCB6-huIgG1 D376R (antibody, name in EU numbering)
heavy: not shown
light: B1 light
notes: copies: 2 + 2
B6 was tested, and the binding result [4] was “binds” and the “fold decrease in binding vs WT” value [7] was 9 fold.

B7: chCB6-huIgG1 L251S (antibody, name in EU numbering)
heavy: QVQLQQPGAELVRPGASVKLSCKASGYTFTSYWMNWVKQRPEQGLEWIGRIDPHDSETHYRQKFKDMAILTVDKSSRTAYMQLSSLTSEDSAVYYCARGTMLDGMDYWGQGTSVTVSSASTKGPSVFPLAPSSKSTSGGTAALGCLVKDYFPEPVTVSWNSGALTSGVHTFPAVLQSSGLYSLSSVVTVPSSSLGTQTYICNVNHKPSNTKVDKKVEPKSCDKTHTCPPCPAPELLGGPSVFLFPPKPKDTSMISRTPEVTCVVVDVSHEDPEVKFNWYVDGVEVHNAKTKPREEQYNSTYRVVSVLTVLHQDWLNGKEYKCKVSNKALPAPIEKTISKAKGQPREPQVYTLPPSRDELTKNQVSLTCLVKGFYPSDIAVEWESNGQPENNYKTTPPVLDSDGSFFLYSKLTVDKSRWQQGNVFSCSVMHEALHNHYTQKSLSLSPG
light: B1 light
notes: copies: 2 + 2
B7: binds [4]; binds [7].

B8: chCB6-huIgG1 H435G (antibody, name in EU numbering)
heavy: not shown
light: B1 light
notes: copies: 2 + 2
B8 was tested, and the “fold increase in binding vs WT” value [4] was 4 fold and the “fold decrease in binding vs WT” value [7] was 4 fold.

B9: chCB6-huIgG1 A378Q (antibody, name in EU numbering)
heavy: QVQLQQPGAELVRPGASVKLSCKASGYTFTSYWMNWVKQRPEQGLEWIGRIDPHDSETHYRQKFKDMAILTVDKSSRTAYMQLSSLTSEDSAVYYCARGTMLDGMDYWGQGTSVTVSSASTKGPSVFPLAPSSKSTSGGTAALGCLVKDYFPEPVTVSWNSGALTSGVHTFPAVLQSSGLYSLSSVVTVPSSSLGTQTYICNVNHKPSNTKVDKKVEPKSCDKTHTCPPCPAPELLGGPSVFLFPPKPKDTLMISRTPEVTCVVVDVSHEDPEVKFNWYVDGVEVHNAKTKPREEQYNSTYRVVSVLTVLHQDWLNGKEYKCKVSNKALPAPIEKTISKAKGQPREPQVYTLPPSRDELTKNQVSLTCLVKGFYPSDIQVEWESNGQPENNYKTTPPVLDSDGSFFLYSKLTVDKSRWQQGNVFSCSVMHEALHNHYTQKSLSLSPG
light: B1 light
notes: copies: 2 + 2
B9: binds [4]; binds [7].

B10: chCB6-huIgG1 I332D/H435S (antibody, name in EU numbering)
heavy: not shown
light: B1 light
notes: copies: 2 + 2
B10: binds [8].

B11: chCB6-huIgG1 R301A (antibody, name in EU numbering)
heavy: not shown
light: B1 light
notes: copies: 2 + 2
B11 was tested, and the binding result [4] was “binds” and the “fold decrease in binding vs WT” value [5] was 5 fold.

B12: chCB6-huIgG1 A378K (antibody, name in EU numbering)
heavy: not shown
light: B1 light
notes: copies: 2 + 2
B12 was tested, and the “fold increase in binding vs WT” value [4] was 4 fold and the binding result [7] was “binds”.

B13: chCB6-huIgG1 Y296Q (antibody, name in EU numbering)
heavy: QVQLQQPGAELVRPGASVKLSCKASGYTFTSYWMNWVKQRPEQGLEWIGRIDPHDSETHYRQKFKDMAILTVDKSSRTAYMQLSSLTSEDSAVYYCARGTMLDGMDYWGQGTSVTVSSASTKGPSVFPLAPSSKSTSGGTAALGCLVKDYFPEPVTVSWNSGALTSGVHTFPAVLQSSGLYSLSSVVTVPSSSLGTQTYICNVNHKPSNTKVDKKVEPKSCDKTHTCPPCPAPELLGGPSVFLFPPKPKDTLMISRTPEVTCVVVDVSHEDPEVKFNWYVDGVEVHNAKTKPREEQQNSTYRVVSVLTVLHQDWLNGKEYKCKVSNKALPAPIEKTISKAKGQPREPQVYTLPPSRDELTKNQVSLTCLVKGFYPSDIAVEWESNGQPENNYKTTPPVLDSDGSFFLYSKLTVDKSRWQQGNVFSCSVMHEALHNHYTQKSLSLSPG
light: B1 light
notes: copies: 2 + 2
B13 was tested, and the “fold decrease in binding vs WT” value [4] was 4 fold and the “fold decrease in binding vs WT” value [5] was 5 fold.

B14: chCB6-huIgG1 H435S (antibody, name in EU numbering)
heavy: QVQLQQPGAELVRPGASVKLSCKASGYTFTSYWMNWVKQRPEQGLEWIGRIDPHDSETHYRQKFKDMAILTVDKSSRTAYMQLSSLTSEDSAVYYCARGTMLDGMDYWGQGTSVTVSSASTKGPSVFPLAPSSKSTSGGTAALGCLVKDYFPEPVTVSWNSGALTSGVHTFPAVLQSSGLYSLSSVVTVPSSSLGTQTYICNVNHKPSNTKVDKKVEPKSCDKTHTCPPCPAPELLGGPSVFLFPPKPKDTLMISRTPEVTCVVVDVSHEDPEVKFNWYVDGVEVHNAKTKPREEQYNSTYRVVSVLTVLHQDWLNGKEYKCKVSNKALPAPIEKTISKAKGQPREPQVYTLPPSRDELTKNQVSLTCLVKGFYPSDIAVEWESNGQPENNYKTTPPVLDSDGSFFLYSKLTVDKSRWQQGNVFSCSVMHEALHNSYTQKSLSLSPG
light: B1 light
notes: copies: 2 + 2
For B14, the “fold increase in binding vs WT” value [4] was 4 fold and the “fold decrease in binding vs WT” value [7] was 5 fold.

B15: chCB6-huIgG1 I332D/A378K (antibody, name in EU numbering)
heavy: not shown
light: B1 light
notes: copies: 2 + 2
B15: binds [8].

B16: chCB6-huIgG1 E294T (antibody, name in EU numbering)
heavy: not shown
light: B1 light
notes: copies: 2 + 2
For B16, the “fold decrease in binding vs WT” value [5] was 8 fold.

B17: chCB6-huIgG1 D376H (antibody, name in EU numbering)
heavy: not shown
light: B1 light
notes: copies: 2 + 2
For B17, the binding result [4] was “binds” and the “fold decrease in binding vs WT” value [7] was 6 fold.

B18: chCB6-huIgG1 R301T (antibody, name in EU numbering)
heavy: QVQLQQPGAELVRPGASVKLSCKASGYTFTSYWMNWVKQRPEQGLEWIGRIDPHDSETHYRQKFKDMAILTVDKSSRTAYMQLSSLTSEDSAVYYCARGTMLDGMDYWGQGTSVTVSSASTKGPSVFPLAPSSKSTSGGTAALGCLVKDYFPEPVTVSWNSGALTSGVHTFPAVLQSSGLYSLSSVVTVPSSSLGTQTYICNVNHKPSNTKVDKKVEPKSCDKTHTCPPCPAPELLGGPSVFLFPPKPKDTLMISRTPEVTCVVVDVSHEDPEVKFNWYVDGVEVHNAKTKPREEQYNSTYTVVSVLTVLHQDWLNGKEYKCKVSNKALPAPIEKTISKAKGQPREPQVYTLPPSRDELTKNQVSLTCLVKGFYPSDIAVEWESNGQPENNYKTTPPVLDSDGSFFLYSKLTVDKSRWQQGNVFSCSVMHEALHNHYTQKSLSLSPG
light: B1 light
notes: copies: 2 + 2
B18: binds [4]; binds [5].
